Measurements published in the supplement of paper PMC11908140.

B1: library; numbered along this chain (parent)
chain: MRKPRAAVGSGHRKQAASQEGRQKHAKNNSQAKPSACDGLARQPEEVVLQASVSSYHLFRDVAEVTAFRGSLLSWYDQEKRDLPWRRRAEDEMDLDRRAYAVWVSEVMLQQTQVATVINYYTGWMQKWPTLQDLASASLEEVNQLWAGLGYYSRGRRLQEGARKVVEELGGHMPRTAETLQQLLPGVGRYTAGAIASIAFGQATGVVDGNVARVLCRVRAIGADPSSTLVSQQLWGLAQQLVDPARPGDFNQAAMELGATVCTPQRPLCSQCPVESLCRARQRVEQEQLLASGSLSGSPDVEECAPNTGQCHLCLPPSEPWDQTLGVVNFPRKASRKPPREESSATCVLEQPGALGAQILLVQRPNSGLLAGLWEFPSVTWEPSEQLQRKALLQELQRWAGPLPATHLRHLGEVVHTFSHIKLTYQVYGLALEGQTPVTTVPPGARWLTQEEFHTAAVSTAMKKVFRVYQGQQPGTCMGSKRSQVSSPCSRKKPRMGQQVLDNFFRSHISTDAHSLNSAAQ

Variants of: B1
Assay: 8OG:A repair function score (normalized; synonymous = 0, nonsense = -1) (normalized log-likelihood score); higher = more repair activity (WT-like)
Conditions: with 8OG:A DNA repair reporter (GFP) in HEK-293 MUTYH KO cells
Procedure, shortened: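 GFP+ (repair) and GFP− bins of viable mCherry+ cells were collected at 72 h from MUTYH knockout HEK-293 cells bearing lentiviral MUTYH cDNA NNN codon-scan libraries in 10 pg/ml doxycycline, co-transfected with an 8OG:A GFP repair reporter and mCherry. Tile amplicons were sequenced, and per-tile Rosace fitness scores were normalized to a repair function score anchored on synonymous and nonsense distributions. Synonymous medians were set to 0 and nonsense to -1, with variants under 300 counts per million at the start removed.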
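Further: cells sorted at 72 h after reporter transfection.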

8OG:A repair function score: each site, then its substitutions
N329: F -0.345, S -0.235, K -0.105, V -0.246, D -0.288, G -0.365, W -0.525, A -0.161, C -0.102, M -0.264, T -0.361, P -0.438, Y -0.104, R -0.0858, H -0.276, I -0.365, L -0.301, Q -0.0134
S318: E 0.0139, G -0.0532, N -0.0704, P -0.26, T 0.116, V -0.155, H -0.0534, C -0.0155, F -0.00953, R -0.0645, Q -0.0273, L -0.0905, W 0.126, K -0.0665, Y -0.0582, D -0.0363, A 0.0892, I 0.00356
E319: M -0.0278, G -0.0752, K -0.0997, R 0.0109, T 0.123, D -0.0309, N -0.0746, H -0.0143, V -0.0112, Y -0.0495, P -0.228, Q 0.0567, C -0.02, L 0.0108, S 0.0138, A -0.00684, W -0.0166, F -0.211, I -0.0159
W321: Q -0.205, A -0.265, S -0.257, E -0.0643, D -0.53, I -0.25, K -0.189, F -0.00541, Y -0.123, T -0.301, V -0.0988, C -0.313, M -0.218, G -0.258, P -0.252, L -0.0977, R -0.203
T324: C -0.0556, H -0.0241, L -0.000813, S 0.0429, F 0.00371, Q -0.0692, M 0.0106, A -0.0315, R 0.0185, E -0.099, P -0.236, G -0.0488, Y -0.0755, D -0.162, I -0.0894, N -0.188, V -0.0374, K 0.056, W -0.0525
D322: N -0.00231, G -0.115, H -0.147, Y -0.0375, A -0.0859, C -0.00563, T -0.0961, P -0.322, Q -0.0416, R -0.044, E 0.0971, W -0.0845, I 0.0378, S -0.0836, M 0.0738, V 0.0232, K 0.00699, F -0.0672, L -0.0483
P320: V -0.0867, R -0.0447, E -0.11, K -0.1, Q -0.104, A -0.0474, Y -0.0806, I -0.0716, L -0.0348, G 0.00385, S -0.0238, H 0.0683, C -0.000958, T -0.0175, D -0.134, F -0.0659, W -0.179, N -0.0442, M -0.0571
L315: P -0.0779, S -0.102, T -0.0895, V -0.0921, C -0.0705, F -0.147, N -0.209, H -0.308, I -0.0865, G -0.123, W -0.187, K -0.116, Y 0.0406, A -0.104, D -0.206, Q -0.193, E -0.305, M 0.0419, R -0.0162
P316: H -0.123, E 0.0013, N -0.154, Y -0.161, F -0.198, S -0.123, A -0.176, M -0.238, L -0.126, Q 0.0822, I -0.253, W -0.331, D -0.0567, V -0.121, K -0.0182, C -0.0546, R -0.109, T -0.057, G 0.00918
